# From patent US20150203575A1 (Genentech, published 2015)
# Like-named read-outs stand apart in the source and are kept apart here.
# T1: mCD99-Fc (mouse, UniProt Q8VCN6 29-137, limits assumed, three O-glycans NeuAc1-2Hex1HexNAc1)
# T1 construct: also called mouse CD99-Fc; mCD99 (SPR analyte); not shown: Fc
# T1 sequence (looked up): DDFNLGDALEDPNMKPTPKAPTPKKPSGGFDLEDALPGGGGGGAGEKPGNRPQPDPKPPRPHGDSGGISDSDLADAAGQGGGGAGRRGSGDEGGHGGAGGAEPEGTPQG
# T2: human NPDC1 expressed on cells (human, UniProt Q9NQX5 35-325)
# T2 construct: also called hNPDC1; hNPCD1
# T2 sequence: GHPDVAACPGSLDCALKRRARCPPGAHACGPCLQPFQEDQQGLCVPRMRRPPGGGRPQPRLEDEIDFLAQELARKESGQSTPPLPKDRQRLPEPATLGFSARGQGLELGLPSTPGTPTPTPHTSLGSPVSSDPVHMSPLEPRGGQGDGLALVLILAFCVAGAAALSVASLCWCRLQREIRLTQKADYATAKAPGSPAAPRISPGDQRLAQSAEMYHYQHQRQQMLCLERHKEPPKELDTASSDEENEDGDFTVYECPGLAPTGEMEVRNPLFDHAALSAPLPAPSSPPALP
# T3: mouse CD99 expressed on 293T cells (mouse, UniProt Q8VCN6 29-175, sialylated O-glycans at Thr-45 and Thr-50 (cited as relevant for PILRα recognition))
# T3 construct: whole, on cells; also called mCD99; mCD99 transfectants
# T3 sequence (looked up): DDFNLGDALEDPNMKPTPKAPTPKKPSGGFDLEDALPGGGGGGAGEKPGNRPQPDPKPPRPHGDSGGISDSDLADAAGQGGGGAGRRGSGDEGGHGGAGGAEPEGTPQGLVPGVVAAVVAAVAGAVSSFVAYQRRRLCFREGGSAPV
# T4: CLEC4G expressed on cells (human, UniProt Q6UXB4 1-293)
# T4 construct: Clone of the Origene human cDNA library; also called C type lectin superfamily 4 member G
# T4 sequence: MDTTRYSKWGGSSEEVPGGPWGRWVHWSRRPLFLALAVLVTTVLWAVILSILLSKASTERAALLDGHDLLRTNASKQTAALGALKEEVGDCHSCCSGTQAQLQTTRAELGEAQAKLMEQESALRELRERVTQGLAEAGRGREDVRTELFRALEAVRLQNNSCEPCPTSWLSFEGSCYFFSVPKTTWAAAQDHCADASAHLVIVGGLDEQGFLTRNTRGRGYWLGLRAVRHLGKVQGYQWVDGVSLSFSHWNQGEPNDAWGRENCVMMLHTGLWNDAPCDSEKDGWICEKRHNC
# T5: MAG expressed on cells (human, UniProt P20916 20-626)
# T5 construct: Clone of the Origene human cDNA library; also called Myelin associated glycoprotein; SIGLEC4A
# T5 sequence: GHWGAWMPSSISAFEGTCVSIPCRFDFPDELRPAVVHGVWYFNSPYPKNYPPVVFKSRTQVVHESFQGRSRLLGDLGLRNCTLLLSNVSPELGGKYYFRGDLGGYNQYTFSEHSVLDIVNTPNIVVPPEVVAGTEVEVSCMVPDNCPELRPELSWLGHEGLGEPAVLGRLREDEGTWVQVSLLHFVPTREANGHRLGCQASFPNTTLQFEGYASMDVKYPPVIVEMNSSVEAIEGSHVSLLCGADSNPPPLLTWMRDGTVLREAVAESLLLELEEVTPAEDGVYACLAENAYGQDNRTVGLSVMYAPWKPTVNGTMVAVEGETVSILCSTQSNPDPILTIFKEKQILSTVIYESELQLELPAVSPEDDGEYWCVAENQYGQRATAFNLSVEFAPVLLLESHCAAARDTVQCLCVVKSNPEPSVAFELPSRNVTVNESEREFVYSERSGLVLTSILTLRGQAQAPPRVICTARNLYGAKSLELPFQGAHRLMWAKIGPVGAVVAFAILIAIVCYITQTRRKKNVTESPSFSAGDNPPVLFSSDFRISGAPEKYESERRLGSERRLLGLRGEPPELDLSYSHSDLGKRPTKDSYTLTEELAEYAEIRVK
# T6: BR3 expressed on cells (human, UniProt Q96RJ3 1-184)
# T6 construct: Clone of the Origene human cDNA library
# T6 sequence: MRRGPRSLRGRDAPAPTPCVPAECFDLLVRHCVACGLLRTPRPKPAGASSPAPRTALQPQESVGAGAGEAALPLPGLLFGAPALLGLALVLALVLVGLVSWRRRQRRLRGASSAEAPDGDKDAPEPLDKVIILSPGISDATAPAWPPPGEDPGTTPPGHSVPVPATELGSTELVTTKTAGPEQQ
# T7: IL-2Ra expressed on cells (human, UniProt P01589 22-272)
# T7 construct: Clone of the Origene human cDNA library; also called Interleukin 2 receptor alpha
# T7 sequence: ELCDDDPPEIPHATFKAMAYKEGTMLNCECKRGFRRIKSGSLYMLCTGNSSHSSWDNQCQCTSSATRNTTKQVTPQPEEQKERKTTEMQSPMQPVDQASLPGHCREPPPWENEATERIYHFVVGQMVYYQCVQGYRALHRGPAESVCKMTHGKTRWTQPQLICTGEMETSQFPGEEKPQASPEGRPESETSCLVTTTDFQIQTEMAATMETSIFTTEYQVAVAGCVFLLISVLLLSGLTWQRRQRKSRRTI
# T8: FceRII expressed on cells (human, UniProt P06734 1-321)
# T8 construct: Clone of the Origene human cDNA library; also called FcRII
# T8 sequence: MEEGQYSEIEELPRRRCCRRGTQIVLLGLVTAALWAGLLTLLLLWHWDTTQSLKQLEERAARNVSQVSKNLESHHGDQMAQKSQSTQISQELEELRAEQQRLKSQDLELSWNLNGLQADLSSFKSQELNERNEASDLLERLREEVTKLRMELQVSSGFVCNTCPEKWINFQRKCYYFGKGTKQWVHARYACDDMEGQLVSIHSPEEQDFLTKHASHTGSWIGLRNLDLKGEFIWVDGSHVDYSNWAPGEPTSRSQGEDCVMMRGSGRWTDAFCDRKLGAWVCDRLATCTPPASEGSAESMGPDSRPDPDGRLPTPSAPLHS
# What was measured:
# hCOLEC12-his = target: T9, hCOLEC12-his (human, UniProt Q5KU26 59-742, sialylated O-glycans and N-glycans); test: SPR, hPILRα R126A-Fc immobilized, response difference
# T9 construct: Whole entry named; also called human COLEC12-his; hCOLEC12 (SPR); not shown: his tag
# mCD99-Fc = target: T1, mCD99-Fc; test: as above
# [1] = target: T10, LRRTM4 expressed on cells (human, UniProt Q86VH4 31-590); test: flow cytometry, transfected 293T cells
# T10 construct: Clone of the Origene human cDNA library; also called Leucine rich repeat transmembrane neuronal 4
# [2] = target: T2, human NPDC1 expressed on cells; test: flow cytometry, transfected 293T cells
# [3] = target: T3, mouse CD99 expressed on 293T cells; test: flow cytometry, transfected 293T cells
# [4] = target: T4, CLEC4G expressed on cells; test: flow cytometry, transfected 293T cells
# MAG expressed on cells [5] = target: T5, MAG expressed on cells; test: flow cytometry, transfected 293T cells, 50 µg/ml
# PSS8 expressed on cells [6] = target: T11, PSS8 expressed on cells (human, UniProt Q16651 30-343); test: flow cytometry, transfected 293T cells, 2 µg/ml
# T11 construct: Clone of the Origene human cDNA library; also called Protease serine 8; prostasin
# BR3 expressed on cells [7] = target: T6, BR3 expressed on cells; test: flow cytometry, transfected 293T cells, 2 µg/ml
# MAG expressed on cells [8] = target: T5, MAG expressed on cells; test: flow cytometry, transfected 293T cells, 2 µg/ml
# [9] = target: T10, LRRTM4 expressed on cells; test: flow cytometry, transfected 293T cells, 2 µg/ml
# [10] = target: T12, human COLEC12 expressed on cells (human, UniProt Q5KU26 1-742); test: flow cytometry, transfected 293T cells, ligand-expressing cells gated
# T12 construct: also called hCOLEC12; C-terminal his tagged hCOLEC12
# [11] = target: T13, HSV1 glycoprotein B expressed on 293T cells (herpes simplex virus type 1, UniProt P10211 31-904); test: as above
# T13 construct: whole, on cells; also called HSV-1 gB; HSV1 gB
# [12] = target: T7, IL-2Ra expressed on cells; test: flow cytometry, transfected 293T cells
# PSS8 expressed on cells [13] = target: T11, PSS8 expressed on cells; test: flow cytometry, transfected 293T cells
# BR3 expressed on cells [14] = target: T6, BR3 expressed on cells; test: flow cytometry, transfected 293T cells
# [15] = target: T7, IL-2Ra expressed on cells; test: flow cytometry, transfected 293T cells; remark: listed apart in the source
# PSS8 expressed on cells [16] = target: T11, PSS8 expressed on cells; test: flow cytometry, transfected 293T cells; remark: listed apart in the source
# MAG expressed on cells [17] = target: T5, MAG expressed on cells; test: flow cytometry, transfected 293T cells, 50 µg/ml; remark: listed apart in the source
# [18] = target: T8, FceRII expressed on cells; test: flow cytometry, transfected 293T cells, 50 µg/ml
# [19] = target: T12, human COLEC12 expressed on cells; test: flow cytometry, transfected 293T cells
# [20] = target: T8, FceRII expressed on cells; test: flow cytometry, transfected 293T cells, 50 µg/ml; remark: listed apart in the source
# [21] = target: T4, CLEC4G expressed on cells; test: flow cytometry, transfected 293T cells, 50 µg/ml
# MAG expressed on cells [22] = target: T5, MAG expressed on cells; test: flow cytometry, transfected 293T cells
# [23] = target: T10, LRRTM4 expressed on cells; test: flow cytometry, transfected 293T cells; remark: listed apart in the source
# BR3 expressed on cells [24] = target: T6, BR3 expressed on cells; test: flow cytometry, transfected 293T cells, 50 µg/ml
# T10 sequence (Q86VH4 31-590 limits assumed): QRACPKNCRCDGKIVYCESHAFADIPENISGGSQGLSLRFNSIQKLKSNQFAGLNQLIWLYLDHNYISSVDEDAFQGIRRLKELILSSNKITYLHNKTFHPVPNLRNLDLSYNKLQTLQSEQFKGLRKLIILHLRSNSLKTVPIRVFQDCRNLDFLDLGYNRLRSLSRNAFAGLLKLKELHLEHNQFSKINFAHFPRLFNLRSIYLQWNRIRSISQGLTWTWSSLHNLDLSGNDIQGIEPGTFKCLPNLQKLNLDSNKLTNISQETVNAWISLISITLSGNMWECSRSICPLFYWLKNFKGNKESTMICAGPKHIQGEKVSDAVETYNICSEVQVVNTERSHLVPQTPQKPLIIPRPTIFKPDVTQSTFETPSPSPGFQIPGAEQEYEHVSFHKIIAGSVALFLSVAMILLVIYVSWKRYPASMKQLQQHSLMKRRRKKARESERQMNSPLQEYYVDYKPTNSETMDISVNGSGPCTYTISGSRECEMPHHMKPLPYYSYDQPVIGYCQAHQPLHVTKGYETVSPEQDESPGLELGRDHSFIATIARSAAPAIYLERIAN
# T11 sequence (Q16651 30-343 limits assumed): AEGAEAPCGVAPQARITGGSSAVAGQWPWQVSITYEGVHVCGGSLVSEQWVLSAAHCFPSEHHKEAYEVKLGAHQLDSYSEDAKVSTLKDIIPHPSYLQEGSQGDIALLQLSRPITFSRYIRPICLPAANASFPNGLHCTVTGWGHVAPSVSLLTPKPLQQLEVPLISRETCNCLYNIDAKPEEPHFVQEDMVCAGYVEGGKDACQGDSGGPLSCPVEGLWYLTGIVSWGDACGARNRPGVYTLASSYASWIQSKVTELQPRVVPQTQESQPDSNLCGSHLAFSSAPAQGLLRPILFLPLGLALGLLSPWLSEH
# T12 sequence (Q5KU26 whole entry S522P/G606S): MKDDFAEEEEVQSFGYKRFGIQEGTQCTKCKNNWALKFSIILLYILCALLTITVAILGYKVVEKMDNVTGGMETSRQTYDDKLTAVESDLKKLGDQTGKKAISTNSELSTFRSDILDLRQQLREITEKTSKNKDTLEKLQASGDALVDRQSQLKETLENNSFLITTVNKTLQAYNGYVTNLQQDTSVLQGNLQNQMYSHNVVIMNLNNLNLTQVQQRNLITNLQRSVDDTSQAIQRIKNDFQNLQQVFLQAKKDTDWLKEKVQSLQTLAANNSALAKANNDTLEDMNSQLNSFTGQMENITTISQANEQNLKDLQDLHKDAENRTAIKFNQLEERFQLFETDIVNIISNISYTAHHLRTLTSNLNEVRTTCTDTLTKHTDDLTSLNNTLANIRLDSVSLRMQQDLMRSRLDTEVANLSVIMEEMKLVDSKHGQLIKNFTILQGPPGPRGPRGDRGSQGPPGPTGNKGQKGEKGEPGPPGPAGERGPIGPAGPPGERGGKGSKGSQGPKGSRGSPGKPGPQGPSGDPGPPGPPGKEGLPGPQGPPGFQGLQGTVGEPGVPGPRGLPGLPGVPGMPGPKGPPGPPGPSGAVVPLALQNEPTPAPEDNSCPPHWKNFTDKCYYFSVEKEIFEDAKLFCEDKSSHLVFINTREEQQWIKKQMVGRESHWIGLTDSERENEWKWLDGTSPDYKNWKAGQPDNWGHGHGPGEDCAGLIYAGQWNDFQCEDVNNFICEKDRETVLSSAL
# T9 sequence (Q5KU26 59-742 S522P/G606S limits assumed): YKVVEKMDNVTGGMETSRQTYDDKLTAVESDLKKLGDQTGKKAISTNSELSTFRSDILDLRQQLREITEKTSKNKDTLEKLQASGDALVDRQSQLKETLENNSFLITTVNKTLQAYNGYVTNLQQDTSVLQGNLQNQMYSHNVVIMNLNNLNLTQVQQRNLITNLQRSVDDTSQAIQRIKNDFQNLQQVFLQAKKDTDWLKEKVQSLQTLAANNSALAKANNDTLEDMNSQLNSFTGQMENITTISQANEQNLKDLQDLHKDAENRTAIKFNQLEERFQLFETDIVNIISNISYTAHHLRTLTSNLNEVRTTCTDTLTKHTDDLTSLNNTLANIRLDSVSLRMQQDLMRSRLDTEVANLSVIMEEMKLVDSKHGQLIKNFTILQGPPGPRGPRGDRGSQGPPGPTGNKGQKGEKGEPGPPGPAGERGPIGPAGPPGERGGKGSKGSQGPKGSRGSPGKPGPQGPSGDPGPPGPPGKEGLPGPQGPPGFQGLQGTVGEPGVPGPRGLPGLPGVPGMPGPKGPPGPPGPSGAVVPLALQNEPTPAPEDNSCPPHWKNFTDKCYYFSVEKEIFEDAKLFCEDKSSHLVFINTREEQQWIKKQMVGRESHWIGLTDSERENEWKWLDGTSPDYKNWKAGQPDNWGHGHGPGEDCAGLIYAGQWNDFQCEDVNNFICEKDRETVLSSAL
binder,measurement,setting,value
"hPILRαR126A-Fc (Fc fusion, Arg mutant of hPILRα-Fc; also called hPILRα R126-Fc; mutant hPILRα; not shown: Fc of mouse IgG2a (PILRα-mIgG2a, called PILRα-Fc)) QPSGSTGSGPSYLYGVTQPKHLSASMGGSVEIPFSFYYPWELATAPDVRISWRRGHFHRQSFYSTRPPSIHKDYVNRLFLNWTEGQKSGFLRISNLQKQDQSVYFCAVELDTRSSGRQQWQSIEGTKLSITQAVTTTTQRPSSMTTTWRLSSTTTTTGLRVTQGKRRSDSWHISLETA",binding result,hCOLEC12-his,no binding (tested: 1 µM)
same,binding result,mCD99-Fc,no binding (tested: 1 µM)
same,binding result,[1],no binding (tested: 50 µg/ml)
same,binding result,[2],no binding (tested: 50 µg/ml)
same,binding result,[3],no binding (tested: 50 µg/ml)
same,binding result,[4],no binding (tested: 50 µg/ml)
same,% cells in lower right quadrant,MAG expressed on cells [5],12.5%
same,% cells in lower right quadrant,PSS8 expressed on cells [6],0.012%
same,% cells in lower right quadrant,BR3 expressed on cells [7],0.47%
same,% cells in lower right quadrant,MAG expressed on cells [8],0.17%
same,% cells in lower right quadrant,[9],0.11%
same,binding result,[10],no binding
same,binding result,[11],no binding
same,binding result,[12],no binding (tested: 50 µg/ml)
same,binding result,PSS8 expressed on cells [13],no binding (tested: 50 µg/ml)
same,binding result,BR3 expressed on cells [14],no binding (tested: 50 µg/ml)
"mPILRβ (receptor, also called Mouse PILR-beta) not shown",binding result,[15],no binding (tested: 50 µg/ml)
same,binding result,PSS8 expressed on cells [16],no binding (tested: 50 µg/ml)
same,% cells in lower right quadrant,MAG expressed on cells [17],0.083%
same,% cells in lower right quadrant,[18],3.98%
same,binding result,[19],no binding (tested: 50 µg/ml)
same,% cells in lower right quadrant,[20],3.98%
same,% cells in lower right quadrant,[21],27.4%
same,binding result,MAG expressed on cells [22],no binding (tested: 50 µg/ml)
same,binding result,[23],no binding (tested: 50 µg/ml)
same,% cells in lower right quadrant,BR3 expressed on cells [24],1.85%
